Literature values as cited in paper PMC8900815.

Target: His124 (UniProt position 124, EWVKGHAGHPE)
Assay: NMR
Conditions: metal-free (no divalent cation bound)

## Ribonuclease HI (RNase HI) (Escherichia coli)
  pKa: around 7
